Consider one substance from patent publication US20040253689A1.

Test in all cases: cell-based or functional assay
The target of experiment [1] is recombinant hIGFBP-3 standard (R&D Systems; synthesized in NSO mouse myeloma cells) (human) (UniProt P17936).
For experiment [2], the target named is 6m-hIGFBP-3 (I56A, Y57A, R75A, L77A, L80A, L81A mutant CHO-hIGFBP-3) (human) (UniProt P17936).
For experiment [3], the target named is wild-type CHO-hIGFBP-3 (6xHis/Xpress/enterokinase-tagged mature human IGFBP-3 expressed in CHO-K1 cells from pRSV-Sec-BP3) (human) (UniProt P17936).
Sequence of wild-type CHO-hIGFBP-3 (6xHis/Xpress/enterokinase-tagged mature human IGFBP-3 expressed in CHO-K1 cells from pRSV-Sec-BP3) (human) (P17936 other isoform, or with tags, fused parts or gaps limits assumed): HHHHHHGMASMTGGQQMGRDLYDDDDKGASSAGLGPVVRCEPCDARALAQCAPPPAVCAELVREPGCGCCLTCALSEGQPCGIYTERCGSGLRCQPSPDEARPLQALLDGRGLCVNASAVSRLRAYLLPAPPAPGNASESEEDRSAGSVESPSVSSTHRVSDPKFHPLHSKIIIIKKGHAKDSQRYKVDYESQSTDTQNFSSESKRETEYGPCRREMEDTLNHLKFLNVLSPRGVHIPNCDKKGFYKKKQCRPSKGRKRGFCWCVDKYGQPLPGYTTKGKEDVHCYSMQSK

Sequence of recombinant hIGFBP-3 standard (R&D Systems; synthesized in NSO mouse myeloma cells) (human) (P17936 28-291 limits assumed): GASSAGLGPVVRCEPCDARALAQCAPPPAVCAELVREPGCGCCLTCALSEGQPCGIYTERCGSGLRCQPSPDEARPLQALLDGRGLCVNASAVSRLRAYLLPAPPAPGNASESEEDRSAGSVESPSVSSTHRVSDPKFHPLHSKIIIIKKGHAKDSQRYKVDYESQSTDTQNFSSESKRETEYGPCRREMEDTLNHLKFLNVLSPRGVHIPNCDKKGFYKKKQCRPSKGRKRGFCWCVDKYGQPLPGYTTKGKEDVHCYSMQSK
Sequence of 6m-hIGFBP-3 (I56A, Y57A, R75A, L77A, L80A, L81A mutant CHO-hIGFBP-3) (human) (P17936 other isoform, or with tags, fused parts or gaps I56A Y57A R75A L77A L80A L81A I56A Y57A R75A L77A L80A L81A): as the sequence (P17936 other isoform, or with tags, fused parts or gaps limits assumed) above, with I83A, Y84A, R102A, L104A, L107A, L108A counted along it

Consider “Leu^60-IGF-I (IGF-I analogue in which leucine is substituted for tyrosine at position 60; expressed in Escherichia coli) (from UniProt P05019 49-118) (ligand)”, for which the percentage of floating PC-3 cells that were dead, with Leu^60-IGF-I was determined as 14% in experiment [1], 80% in experiment [2] and 14% in experiment [3]. In addition, the results for the percentage of floating PC-3 cells that were dead, without Leu^60-IGF-I in experiment [1], in experiment [2] and in experiment [3] were 82%, 86% and 82%, respectively.
